A value given as a limit tells only on which side of the number the result lay.

A short description of the data set: soluble fraction after stress (log2 fold change); higher = more stays soluble; pooled small domains, quantitative proteomics. The note with it: stress: pH 4. The essentials:
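Pooled custom libraries of small protein domains were stressed at pH 4 and then measured by high-throughput quantitative proteomics. The fold change in the amount of each domain that stays soluble after the acid stress serves as a measure of aggregation propensity. Fold changes are given on a log2 scale, and higher values mean more of the domain stayed soluble.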

Regarding “HMKAILHQESRSGFANATVIGGLDKFLDTNWNQLSKYIKKIETPYSDRSLEDRKIWISTILGILSTEI”, the “soluble fraction (log2)” value came to 0.136. As to “HMKALHEEIAEKIQEQILRSNLAPGDKLDTELELAARYGVSRSTIRQALIQLESAGLIDRLHGRGTFVAD”, the “soluble fraction (log2)” value came to 0.029.

For “HMKAPDSQYKPLTDFQTDASFQKLDAYLRNRYPAMLANAVVYDVLRTPDAISYRVNYQVDNKMITINAAVT”, the “soluble fraction (log2)” value turned out to be 0.157.

For “HMKAPLTFVIEGKEYEAFDQYKTGAELKQLAGIPLDTELFLSISKPYQDELIENEKQVNLARPETEYFFVK”, the “soluble fraction (log2)” value is -0.494. As for “HMKAQTVPQFVGMTMTEAEEKASELGITLIEGAVVDSVEPKDTILTQDVDEGTEITGKMEIMVTISS”, the “soluble fraction (log2)” value is -0.352. For the sequence “HMKARLRRVFQIYYGDAYSIMKALKETFPLQTIVHEPRTNSIVVDTPDEETATKIGDVVSAL”, the “soluble fraction (log2)” value was -0.563. Take “HMKDANIQIGKRLREARLNMNLEKSEIADVLGVTVEHYRKLEAGVMGISVDKVLTLYHKYGIDPTYLITG”: the “soluble fraction (log2)” value was -0.712. For “HMKDEGSLKVIGQMVVIGIPQSEAKRFANTYTVAQIRAALQYTQKRSEDKNASKLENVAAYFRQALVRNWG”, the “soluble fraction (log2)” value is at least 0.43. Consider “HMKDHKSKWMAKTELDSIAKNLSKKHAISLDYEEDGTRFYAGGQSPLGIGRLFTVFVAPRNGHWSDQLR”, for which the “soluble fraction (log2)” value was -0.0435.

Turning to “HMKDLIGEAKAKELALGHAKLSASDVTFIHVELDWENGRRVYDVEFYSGAKEYDYEIDAKTGEIVSFDY”, the “soluble fraction (log2)” value amounted to 0.00222. Under “HMKDLQHLVGEKGTTVTPLRPSGIALIKGSRYDVVSEGSFIQQGVAVEVIKVEGRRVVVSPLQED” stands -0.0748; under “HMKDLSMPDVMGSSLNDAKKALTELGIMDITVRYVESGSSEGSIVGMEPPAGSKFAADGKVVLQVSSGS”, 0.0083; under “HMKDMKISTQNILKELATNYPDQTAFRKNVIESTAKSMGYTGKDFYPMLTAETRVKIGTYDLSALLQTV”, -0.197. Under “HMKDPSFELMSVAESFYRSGNVDHAVYALEKYLEVYADGDYTDRAHDLLSQARKGLTYPHGYPPLQI” stands -1.33. Under “HMKDRDISNAVLNILSKDSDHNYNYKQIASVLGVKDPFVRKRIVSVLAQLTKNGQLEEISRGKYQIKN” stands -0.694. In the case of “HMKDRNISSSVLEILSKDPDHTYNYKQIAALLGVKDAFIRKRIVTLLAQLAKDGHLDEISRGKYQIK”, the “soluble fraction (log2)” value was -0.0199. On to “HMKDVVAPMSGRVVRLMVAAGDEVVKRQALVVVEAMKMENVLTAPKEGRIKKVPVREGMTVEVGQTLVSFE”, for which the “soluble fraction (log2)” value is -0.274. Under “HMKDYKSALQELIQSGDKRVISYHTLKETGPSHNREFEAAVKLDGNIILGVGKGKTKKEAEQNAAHEALKK” stands 0.165; under “HMKDYKSSLQERVQAVGGGQLIYRVNREEGPDHSKTFYMDLFLGDRLIGTGSGRNKKQAEQQAAKEAIERG”, 0.0469. With “HMKDYKTIFQELIQKKHKTSPIYKSYEYNDMFKAEVYVNDKSFADGIGKSKKEAETDAAKKALEKIEMA”, the “soluble fraction (log2)” value turned out to be 0.0809. On to “HMKDYQGEISVVASGERIDVYLFNYFNLFSRTKIKNHIKNGNILVNENIISPSYILKQNDKIAFNLGAPY”, for which the “soluble fraction (log2)” value was -2.12. On to “HMKDYQGNILIQSEGDRIDKFLFKYFNSFSRTKIKNHIINGNILVNDKNTIPAYVLKINDKISYDLSTSVK”, for which the “soluble fraction (log2)” value was -0.877. With “HMKEAITVIGGKNNITFDASAQAEIGIYSMDGVQIQKKTISDNERIDLPAGMYVVTVKTGQANVSKVVVV”, the “soluble fraction (log2)” value is -0.145. For the sequence “HMKEDSTIIERIISNLSSASLKTQKAFEYKLTDLMFRFSEGEYEWSSAMEVIREELLPFLNK”, the “soluble fraction (log2)” value was -0.645. Turning to “HMKEETEMVTIPDVTGKPLTEAANLLREAKLDYLAESTGTSVTKQMPLPGAEVMVNTTVLLYTG”, the “soluble fraction (log2)” value worked out at 0.241.

Turning to “HMKEEVMVPNVVGKELSAALLEMQVKELYPKLQLKYSNFVDDKGTVLEQSPPAGSIVKAGRRINLVVSRGA”, the “soluble fraction (log2)” value came out at 0.0708. For “HMKEIKAPNKINAHLIEEWRSQHPTELFPEEKVDLIYYKGEEYYFVIEEKNELGEIEEWYFAYDGGIDYV”, the “soluble fraction (log2)” value is -0.373. For “HMKEILTNESIIQFVKDKVSEEQIIYKINNSPIDFKLDVNSMVSLAKQNVSSTIIIAMENAMNN”, the “soluble fraction (log2)” value is -0.522. Under “HMKELLQEMIMDILRAIASPNIDIKRKTLDLVLDLITPRNIDNVTGMLKTEVVKSQSENTSDVG” stands -0.572; under “HMKELTYSDFRKAYPDIQGNLFGMAERYITALDWTEVAAKVETDEELRKERDIFYLVKTYIRKYVQ”, -0.695; under “HMKELVAGQTVRVHHSIGFGQTGTVTALNSLKTTLPNGLRTNTASILFQNNEKVVLPISNFDIIES”, 0.403.

Regarding “HMKELVEDFASRISNARQSKGWNQSELAKRMAETVNVVKSAESGKSPTDSVIKKLERVLGIILM”, the “soluble fraction (log2)” value was determined as 0.0723. For “HMKEQLITVYVSGAVARPGLYELPAGIRAQEAVEAAGGFTEAANHEKVNLAKKLKDGSQVNVPALK”, the “soluble fraction (log2)” value is -0.107. For the sequence “HMKEQYDLNDREQQFISLVANGLNNKEIAETLFLSEGTVRNYLSNLLDKLGLRDRTQLAIFFYQHL”, the “soluble fraction (log2)” value is -1.74.

Turning to “HMKERLLDPYKDFIVNYLQKYPYTPAAVMHDKLKESYPDFPKVDPKTIYNFVMLLRRDFNIPKV”, the “soluble fraction (log2)” value is -0.406. With “HMKETERKILQAVLGLPLKYRDVIHLFYYEEMSVKEIAEVLHRQESTVTSQLTRARGILKKNL”, the “soluble fraction (log2)” value was -0.377.

With “HMKETLSDTVSRKLEDMITTQMKAGNRLPTEMVLAEMYSVGRSTIRESLKALSSKGLIVRKKDGTFVSDRV”, the “soluble fraction (log2)” value turned out to be 0.22. Under “HMKEVKAPMPGMVLRVEVAPGQEVQEGDPLLVLEAMKMENNLKSPASGTIKSVHVEAGKAVEKGAVLVVF” stands -0.257; under “HMKEVKRDQVIEAARKLFHQFGFKKVSMDEIAKEAGVTKKTIYMYFESKEELLKYFIQEEISN”, -0.44; under “HMKEVVKVTITPSEKLKSQYPDALVSIDGKFYDLGILNNPVEFYMDKDHKISIIWSTAELVESFRI”, -0.248. As to “HMKEYRKEGHLYFVTEDRNNEIYLWDFTDKPKHEFKEIITSVELQKVAKEGAMLQYKNGKYELYS”, the “soluble fraction (log2)” value is -0.0848. For “HMKFDVNAAIRAVLNVTVDKGATLERIMKETNLTSDQLVLPIALLMKTERLHFKRSGTHEVYVSVGKAPDK”, the “soluble fraction (log2)” value was -0.0868. Regarding “HMKFGEQIKERRQELDLTQAEVAEKLFVTRQAVSNWEHNKTYPDLNMLVKISNVYQISLDSLLR”, the “soluble fraction (log2)” value was -0.0339.

For “HMKFHENLIALRRREGWSQEELGNRIGVTRQTVSKWELGLTTPELEKLVQLADVFGMTTDQLVGR”, the “soluble fraction (log2)” value is -0.111. Take “HMKFNLWLSEKLKKLGLTQRKLAEQAGVSPATVSRWLSGEFEPDLTNLRKINQVLGVPERELFLQLGL”: the “soluble fraction (log2)” value is -0.0282. Take “HMKFPNVGENLRLLRQEMGISLDKASKMTGVSKAMLGQIERGESSPTVSTLWKISSGFKINFTTLLSE”: the “soluble fraction (log2)” value is 0.224. With “HMKFPPASDIRRMRKAIDVTQTELAKQSGVSQSTIAKIERGRISASYDTVVKLFETLDEMAK”, the “soluble fraction (log2)” value was -0.00924. With “HMKFTPPTLEQIKNEMLLKTDEYNADIQSDRFFTYYDSNGWMVGKNKMKKFLVSLVAVFAATSA”, the “soluble fraction (log2)” value is -0.374.

“HMKFYIHEIIGFNAVDKVAGIVGKVININEDSPQKKLVVNYNGKEVFIPLVDEIVRKIDKQKNEVLITMP”: the “soluble fraction (log2)” value was -0.174. With “HMKGEIEELLYEEVTKDNNTTFLRIYIKLNDEYNTLLNLGIIGIKTEEKVNELVNLGYKKVL”, the “soluble fraction (log2)” value was -2.54.

The values above are taken from the domain aggregation screens of Martell et al. (2025).
